Reference: article PMC4774423 (Frontiers in Immunology, 2016)

B1: gC1qA module of C1q-scGR (residues 88-223 of mature C1qA) (domain or fragment, human, UniProt P02745 110-245, looked up)
chain: KDQPRPAFSAIRRNPPMGGNVVIFDTVITNQEEPYQNHSGRFVCTVPGYYYFTFQVLSQWEICLSIVSSSRGQVRRSLGFCDTTNKGLFQVVSGGMVLQLQQGDQVWVEKDPKKGHIYQGSEADSVFSGFLIFPSA
modifications: N-glycan at Asn 124
notes: globular domain of human C1q chain A; numbers count on: the mature protein; In the crystal it is joined on one chain with gC1qC (Gly-Ser-Gly linker) and gC1qB: see m1; also called subunit A; source: 293-F cells, as part of the single chain C1q-scGR, purified
B2: gC1qC module of C1q-scGR (residues 87-217 of mature C1qC) (domain or fragment, human, UniProt P02747 115-245, looked up)
chain: KQKFQSVFTVTRQTHQPPAPNSLIRFNAVLTNPQGDYDTSTGKFTCKVPGLYYFVYHASHTANLCVLLYRSGVKVVTFCGHTSKTNQVNSGGVLLRLQVGEEVWLAVNDYYDMVGIQGSDSVFSGFLLFPD
notes: globular domain of human C1q chain C; numbers count on: the mature protein; In the crystal it is joined on one chain between gC1qA and gC1qB: see m1; also called subunit C; source: 293-F cells, as part of the single chain C1q-scGR, purified
B3: single-chain recombinant form of human C1q globular region (C1q-scGR) (domain or fragment)
chain: KDQPRPAFSAIRRNPPMGGNVVIFDTVITNQEEPYQNHSGRFVCTVPGYYYFTFQVLSQWEICLSIVSSSRGQVRRSLGFCDTTNKGLFQVVSGGMVLQLQQGDQVWVEKDPKKGHIYQGSEADSVFSGFLIFPSAGSGKQKFQSVFTVTRQTHQPPAPNSLIRFNAVLTNPQGDYDTSTGKFTCKVPGLYYFVYHASHTANLCVLLYRSGVKVVTFCGHTSKTNQVNSGGVLLRLQVGEEVWLAVNDYYDMVGIQGSDSVFSGFLLFPDGSAKATQKIAFSATRTINVPLRRDQTIRFDHVITNMNNNYEPRSGKFTCKVPGLYYFTYHASSRGNLCVNLMRGRERAQKVVTFCDYAYNTFQVTTGGMVLKLEQGENVFLQATDKNSLLGMEGANSIFSGFLLFPDMEA
modifications: N-glycan (biantennary, sialylated) at Asn 124 of C1qA
notes: globular domain of human complement C1q chain A (gC1qA), residues 88-223 of mature C1qA; numbers count on: the mature protein; Gly-Ser-Gly linker between gC1qA and gC1qC; Gly-Ser-Ala linker between gC1qC and gC1qB; globular domain of human complement C1q chain B (gC1qB), residues 90-226 of mature C1qB; An insect-cell version (C1qA 85-223, melittin signal peptide) was also made but was low-yield …
B4: recombinant human calreticulin (natural protein, UniProt P27797 18-417, looked up)
chain: EPAVYFKEQFLDGDGWTSRWIESKHKSDFGKFVLSSGKFYGDEEKDKGLQTSQDARFYALSASFEPFSNKGQTLVVQFTVKHEQNIDCGGGYVKLFPNSLDQTDMHGDSEYNIMFGPDICGPGTKKVHVIFNYKGKNVLINKDIRCKDDEFTHLYTLIVRPDNTYEVKIDNSQVESGSLEDDWDFLPPKKIKDPDASKPEDWDERAKIDDPTDSKPEDWDKPEHIPDPDAKKPEDWDEEMDGEWEPPVIQNPEYKGEWKPRQIDNPDYKGTWIHPEIDNPEYSPDPSIYAYDNFGVLGLDLWQVKSGTIFDNFLITNDEAYAEEFGNETWGVTKAAEKQMKDKQDEEQRLKEEEEDKKRKEEEEAEDKEDDEDKDEDEEDEEDKEEDEEEDVPGQAKDEL
notes: human calreticulin, recombinant; also called CRT
B5: recombinant human receptor for the globular heads of C1q (gC1qR) (receptor, UniProt Q07021 74-282, looked up)
chain: LHTDGDKAFVDFLSDEIKEERKIQKHKTLPKMSGGWELELNGTEAKLVRKVAGEKITVTFNINNSIPPTFDGEEEPSQGQKVEEQEPELTSTPNFVVEVIKNDDGKKALVLDCHYPEDEVGQEDEAESDIFSIREVSFQSTGESEWKDTNYTLNTDSLDWALYDHLMDFLADRGVDNTFADELVELSTALEHQEYITFLEDLKSFVKSQ
notes: the mature protein is recalled to begin at residue 74 of the precursor; also called receptor for C1q globular heads

Key:
Details in all cases: both partners purified
[1] = biological target: T1, gC1qB module of C1q-scGR (residues 90-226 of mature C1qB) (human, UniProt P02746 117-253); experiment: crystal structure; C1q-scGR crystallised with and without calcium in the reservoir; 1.35 and 1.55 Å
T1 construct: globular domain of human C1q chain B; numbers count on: the mature protein; In the crystal it is joined on one chain after gC1qC (Gly-Ser-Ala linker): see m1; also called subunit B; source: 293-F cells, as part of the single chain C1q-scGR, purified

[2] = biological target: B1; experiment: as above
[3] = biological target: B4; experiment: SPR; Biacore 3000, 25°C; CRT, gC1qR and PTX3 amine-coupled on CM5; C1q samples flowed at 20 μl/min in 50 mM Tris-HCl, 150 mM NaCl, 2 mM CaCl2, 0.005% P20, pH 7.4; global fit 1:1 Langmuir (two-state model for C1q-CRT); apparent KD
[4] = biological target: B5; experiment: as above
[5] = biological target: T2, recombinant human long pentraxin PTX3 (human, UniProt P26022 18-381); experiment: as above
T2 construct: human pentraxin 3, recombinant

[6] = biological target: T3, C1q purified from human serum (full-length C1q) (human, UniProt P02745 23-245; P02746 28-253; P02747 29-245); experiment: as above
T3 construct: also called intact C1q; native C1q; source: purified from human serum; copies: 6 + 6 + 6

[7] = biological target: T4, globular regions of C1q prepared by collagenase digestion of serum-derived C1q (C1q-GR) (human, UniProt P02745 112-245; P02746 118-253; P02747 115-245); experiment: as above
T4 construct: globular region of human C1q chain A left after collagenase digestion; globular region of human C1q chain B left after collagenase digestion; globular region of human C1q chain C left after collagenase digestion; Heterotrimer of the three globular modules; Mw 48,000 used for concentration; also called serum-derived C1q-GR; plasma-derived C1q-GR; source: collagenase digestion of C1q purified from …

T2 sequence (P26022 18-381): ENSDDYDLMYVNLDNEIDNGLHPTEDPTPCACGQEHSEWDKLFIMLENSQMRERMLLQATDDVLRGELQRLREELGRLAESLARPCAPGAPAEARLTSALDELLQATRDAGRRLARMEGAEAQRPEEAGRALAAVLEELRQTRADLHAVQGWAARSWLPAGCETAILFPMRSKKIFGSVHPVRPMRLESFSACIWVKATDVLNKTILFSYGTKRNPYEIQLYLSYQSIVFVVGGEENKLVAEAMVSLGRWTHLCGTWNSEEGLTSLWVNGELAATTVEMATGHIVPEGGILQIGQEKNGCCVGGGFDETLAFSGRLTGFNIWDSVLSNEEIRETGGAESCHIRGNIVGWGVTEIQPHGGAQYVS

B1
binding result [1]: binds

B2
binding result [2]: binds
binding result [1]: binds

B3
Kd [3]: 494 nM
koff [3]: 0.00136 s⁻¹
kon [3]: 2800 M⁻¹ s⁻¹
Kd [4]: 304 nM
koff [4]: 0.00067 s⁻¹
kon [4]: 2220 M⁻¹ s⁻¹
Kd [5]: 444 nM
koff [5]: 0.000552 s⁻¹
kon [5]: 1320 M⁻¹ s⁻¹

B4
Kd [6]: 590 nM
Kd [7]: 510 nM
koff [7]: 0.00234 s⁻¹
kon [7]: 4630 M⁻¹ s⁻¹

B5
Kd [6]: 7.2 nM
koff [6]: 0.000457 s⁻¹
kon [6]: 68000 M⁻¹ s⁻¹
Kd [7]: 344 nM
koff [7]: 0.00149 s⁻¹
kon [7]: 4400 M⁻¹ s⁻¹
